Measured values published in article PMC7138840.

B1: ROPY (RFP-OP18-YFP) FRET sensor: stathmin/oncoprotein18 (OP18) with sYFP2 donor and mScarlet-I R125I acceptor (natural protein)
chain: MASSDIQVKELEKRASGQAFELILSPRSKESVPDFPLSPPKKKDLSLEEIQKKLEAAEERRKSHEAEVLKQLAEKREHEKEVLQKAIEENNNFSKMAEEKLTHKMEANKENREAQMAAKLERLREKDKHVEEVRKNKESKDPADETEAD
B2: ROPY-4A, phospho-blocking variant of ROPY with four serines mutated into alanines (natural protein)
chain: MASSDIQVKELEKRAAGQAFELILAPRSKESVPDFPLAPPKKKDLSLEEIQKKLEAAEERRKAHEAEVLKQLAEKREHEKEVLQKAIEENNNFSKMAEEKLTHKMEANKENREAQMAAKLERLREKDKHVEEVRKNKESKDPADETEAD
B3: ROPY-4E, phospho-mimetic variant of ROPY with four serines mutated into glutamic acids (natural protein)
chain: MASSDIQVKELEKRAEGQAFELILEPRSKESVPDFPLEPPKKKDLSLEEIQKKLEAAEERRKEHEAEVLKQLAEKREHEKEVLQKAIEENNNFSKMAEEKLTHKMEANKENREAQMAAKLERLREKDKHVEEVRKNKESKDPADETEAD

Biological target: free tubulin heterodimers (human (endogenous in HEK293T and HeLa)) (UniProt P68363)
Sequence of UniProt P68363 (P68363 whole entry, chain 1 of 2): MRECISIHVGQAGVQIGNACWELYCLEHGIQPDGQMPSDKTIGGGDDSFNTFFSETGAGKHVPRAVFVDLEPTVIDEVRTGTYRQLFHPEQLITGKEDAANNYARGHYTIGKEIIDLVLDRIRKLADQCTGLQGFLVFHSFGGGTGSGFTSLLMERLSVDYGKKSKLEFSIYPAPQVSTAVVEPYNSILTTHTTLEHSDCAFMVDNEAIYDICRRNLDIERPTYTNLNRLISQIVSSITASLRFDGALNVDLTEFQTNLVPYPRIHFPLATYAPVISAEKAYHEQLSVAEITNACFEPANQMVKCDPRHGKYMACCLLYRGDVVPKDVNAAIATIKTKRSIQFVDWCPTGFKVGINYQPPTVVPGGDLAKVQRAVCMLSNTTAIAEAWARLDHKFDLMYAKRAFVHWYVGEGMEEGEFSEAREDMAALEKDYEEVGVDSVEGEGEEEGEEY
Sequence of UniProt P68363 (P07437 whole entry, chain 2 of 2, further chain): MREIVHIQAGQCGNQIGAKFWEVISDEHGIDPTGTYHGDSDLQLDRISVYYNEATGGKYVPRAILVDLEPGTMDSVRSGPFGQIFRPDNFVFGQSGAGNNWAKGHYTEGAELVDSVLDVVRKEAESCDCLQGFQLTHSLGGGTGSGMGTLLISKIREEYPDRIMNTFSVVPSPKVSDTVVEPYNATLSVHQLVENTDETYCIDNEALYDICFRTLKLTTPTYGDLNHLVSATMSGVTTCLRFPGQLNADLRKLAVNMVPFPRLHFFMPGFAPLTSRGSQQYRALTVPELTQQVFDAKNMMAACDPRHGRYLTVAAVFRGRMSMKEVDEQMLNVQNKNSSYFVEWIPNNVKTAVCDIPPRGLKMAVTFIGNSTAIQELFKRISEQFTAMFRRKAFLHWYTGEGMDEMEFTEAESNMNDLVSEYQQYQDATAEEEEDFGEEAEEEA

**Q.** Which Relative FRET increase (RFP/YFP ratio of the intramolecular sensor) after 10 µM paclitaxel for 1 h, HEK293T cells does the source give for B1 here?
**A.** 1.11

**Q.** With B2 as the binder, how does the Relative FRET increase (RFP/YFP ratio of the intramolecular sensor) after 10 µM paclitaxel for 1 h, HEK293T cells read?
**A.** 1.15

**Q.** For B3, which Relative FRET increase (RFP/YFP ratio of the intramolecular sensor) after 10 µM paclitaxel for 1 h, HEK293T cells is on record?
**A.** 1.01
